In patent US8829175B2, “Nucleic acids encoding polyvalent protein complexes” (IBC Pharmaceuticals, Inc., priority 2003, dated 2014):

What was measured:
CEA = molecular target: T1, CEA (Homo sapiens, UniProt P06731); assay: SE-HPLC analysis of in vitro immunoreactivity with CEA; assay type: binding; conditions: 125I-labeled protein; complexes bound to either one or two CEAs
T1 sequence (P06731 35-676): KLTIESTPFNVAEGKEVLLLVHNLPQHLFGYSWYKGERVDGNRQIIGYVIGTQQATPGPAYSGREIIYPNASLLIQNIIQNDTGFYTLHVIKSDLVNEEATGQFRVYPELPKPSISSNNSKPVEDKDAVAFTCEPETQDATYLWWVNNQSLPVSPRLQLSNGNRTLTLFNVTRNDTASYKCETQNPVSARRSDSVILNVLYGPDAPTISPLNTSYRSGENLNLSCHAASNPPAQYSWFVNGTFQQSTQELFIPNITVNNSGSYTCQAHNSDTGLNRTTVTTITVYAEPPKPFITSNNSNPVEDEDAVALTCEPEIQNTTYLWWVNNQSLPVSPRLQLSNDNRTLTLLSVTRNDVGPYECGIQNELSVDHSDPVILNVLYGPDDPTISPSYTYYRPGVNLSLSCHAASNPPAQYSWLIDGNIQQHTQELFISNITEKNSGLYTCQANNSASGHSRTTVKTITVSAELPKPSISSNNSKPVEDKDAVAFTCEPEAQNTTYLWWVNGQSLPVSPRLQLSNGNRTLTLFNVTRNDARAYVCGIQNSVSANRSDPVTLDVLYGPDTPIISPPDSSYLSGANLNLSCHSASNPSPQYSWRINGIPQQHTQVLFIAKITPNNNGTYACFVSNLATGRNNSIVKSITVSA
Text: Confirmation that BS14HP has the ability to bind CEA bivalently was provided by SE-HPLC analysis of in vitro immunoreactivity. […] (FIG. 6B).

[1] = BIAcore binding to HSG immobilized on a sensorchip
Text: If the W12 binding is allowed to approach saturation, the stoichiometry of the binding can be determined. The additional increase in RU resulting from W12 binding was compared to the initial RU increase of the hBS14 upon binding to the HSG-sensorchip. As each increase in RU level is directly proportional to the mass bound, the WI2:bsAb molar binding ratio can be calculated using the formula (RUWI2/RUhBS14)×(MWhBS14/MWWI2). hBS14 was designed to be bivalent for CEA (and monovalent for HSG) and as such should bind W12 (also bivalent) with a 1:1 molar ratio. […] When equal concentrations of hBS14 were bound to an HSG-sensorchip, BIAcore sensorgrams are indistinguishable between lots derived from either SP2/0 or YB2/0 cells (FIG. 17).

[2] = system: human colonic tumor (GW-39) xenograft; assay: Imaging of mice pre-targeted with hBS14 followed by 99mTc-IMP-245; assay type: in vivo, nude mice
Experimental: The experiment used 3 groups of 15 mice, each of which was necropsied, and 1 group of 5 mice that was imaged. Three groups of mice were administered 6 μCi ^125I-hBS14 (40 μg, 5.0×10^−10 moles). In the last group (imaging group), 3 mice received unlabeled hBS14. The amount of ^99mTc-IMP-245 administered to all the mice was ˜40 μCi (92 ng, 5.0×10^−11 moles) for a bispecific:peptide ratio of 10:1.
Animals 1 & 2 were given peptide only, while animals 3, 4, & 5 were administered hBS14 followed by peptide.

B1: hBS14: bispecific trivalent heterodimer (hMN-14×hMN-14×679) expressed in myeloma cells, SEQ ID NO:11 and 12 (antibody)
heavy: MEVQLVESGGDLVKPGGSLKLSCAASGFTFSIYTMSWLRQTPGKGLEWVATLSGDGDDIYYPDSVKGRFTISRDNAKNSLYLQMNSLRAEDTALYYCARVRLGDWDFDVWGQGTTVSVSSGGGGSDIQLTQSPSSLSASVGDRVTITCKASQDVGTSVAWYQQKPGKAPKLLIYWTSTRHTGVPSRFSGSGSGTDFTFTISSLQPEDIATYYCQQYSLYRSFGQGTKVEIKRLEGGGSEVQLVESGGGVVQPGRSLRLSCSASGFDFTTYWMSWVRQAPGKGLEWIGEIHPDSSTINYAPSLKDRFTISRDNAKNTLFLQMDSLRPEDTGVYFCASLYFGFPWFAYWGQGTPVTVSVDHHHHHH
light: MDIQLTQSPSSLSASVGDRVTITCKASQDVGTSVAWYQQKPGKAPKLLIYWTSTRHTGVPSRFSGSGSGTDFTFTISSLQPEDIATYYCQQYSLYRSFGQGTKVEIKRGGGQFMEVQLVESGGGVVQPGRSLRLSCSASGFDFTTYWMSWVRQAPGKGLEWIGEIHPDSSTINYAPSLKDRFTISRDNAKNTLFLQMDSLRPEDTGVYFCASLYFGFPWFAYWGQGTPVTVSGGGGSDIVMTQSPSSLAVSPGERVTLTCKSSQSLFNSRTRKNYLGWYQQKPGQSPKLLIYWASTRESGVPDRFSGSGSGTDFTLTINSLQAEDVAVYYCTQVYYLCTFGAGTKLELKRLDHHHHHH
SE-HPLC peak shifts on mixing with increasing amounts of CEA (CEA): two distinct peak shifts | binding to immobilized HSG [1]: bound tightly | tumor visibility in images ([2]; 1 hr post-peptide administration, hBS14 48-hr clearance then 99mTc-IMP-245): clearly visible | location of signal in images ([2]; 24 hrs post-peptide administration, imaged for 20 minutes): only signal detected was located in the tumors
